Numbering of substitutions follows the chain as printed. In names and notes the source's numbering stands. Ends that are not written are not given here.
B1: GT-CTH D131A (protein)
chain: MGYSENFIANDWFNVEVFNKNKYTLTNQENKDVTELWLQILKGLKFPNELKETVSYSKNLKELSLKTHAEVSVCIIAKNEQDSIRKCINSIYEFSDEIIFIDTGSIDSTKKIVKEIASEKVKIFDYTWQDAFSDARNYSIQKASKEWILIIDADEYVSSDELIKLRLLIDMLDRFKFKDSLRVSCAIYQLDNVITHGQSRLFRNNNKIKYYGLIHEELRNNKGLDPIFNVESEITFFHDGYKEILRKEKCERNIRLLAKMLEKEPDNVRWAYLYCRDSFSINSNIDFEKILLPFLIKNMDESISCENILLTNYTHLILFLITKKYIIDGKSSLASKCIEVLEKMLPNSSDVTFYKFLNKQHSLYEQQFEFLKEVIQFRKNNEYDQYSQIGCNLLHYDLLISGLLFDVKSYDYSYQYFLKLDLANYFSELEIPDEYKMLINKYRENESLEHHHHHH
B2: GT-CTH D130A, D131A (protein)
chain: B1 chain with D130A
B3: GT-CTH F132A (protein)
chain: B1 chain with A131D, F132A
B4: GT-CTH W147A (protein)
chain: B1 chain with A131D, W147A
B5: GT-CTH D131A, F132D (protein)
chain: B1 chain with F132D
B6: GT-CTH C87A (protein)
chain: B1 chain with C87A, A131D
B7: GT-CTH Y241A (protein)
chain: B1 chain with A131D, Y241A
B8: GT-CTH D102A (protein)
chain: B1 chain with D102A, A131D
B9: GT-CTH E97A (protein)
chain: B1 chain with E97A, A131D
B10: GT-CTH R136A (protein)
chain: B1 chain with A131D, R136A
B11: GT-CTH D152A (protein)
chain: B1 chain with A131D, D152A
B12: GT-CTH D154A (protein)
chain: B1 chain with A131D, D154A
B13: GT-CTH A153R (protein)
chain: B1 chain with A131D, A153R
B14: GT-CTH D130A (protein)
chain: B1 chain with D130A, A131D

Experiments:
[1] = test system: Listeria monocytogenes EGD-e; experiment: Agar well diffusion assay of antimicrobial activity of enterocin 96 glycoforms (zone of growth inhibition); type: cell-based; details: 50 μM glycoform in agar wells, BHI agar seeded with Listeria monocytogenes EGD-e, 37° C. for 12 h
Protocol: The di-glycosylated, mono-glycosylated and un-glycosylated glycoforms corresponding to enterocin 96 (known bacteriocin) peptide sequence are prepared under controlled GT assay conditions and purified using RP-HPLC based method. The lyophilized product glycoforms including glyco-diversified forms are resuspended in 50 mM Tris-Cl, pH 7.5. The culture of Listeria monocytogenes EGD-e is grown in BHI media at 37° C. for 7-8 h. Agar plates are prepared by mixing 25 μL of saturated culture (A600≈1.5) and 100 mL of molten BHI agar (cooled to 40-45° C.) and pouring the mixture into sterile petri plates. The seeded agar plates are allowed to solidify for 30-45 min and agar wells are prepared using a sterile cork borer. 50 μM of all glycoforms including glyco-diversified forms are poured in to the wells and plates are incubated at 37° C. for 12 h. The antimicrobial activity is determined by the presence and absence of zone of growth inhibition.

[2] = test system: synthetic acceptor substrates; experiment: In vitro glycosyltransferase (GT) assay of GT-CTH mutants with MS detection of glycosylated product; type: biochemical; details: purified mutant of GT-CTH, acceptor substrate and UDP-glucose, MS analysis
Protocol: Purified recombinant nucleotide dependent glycosyltransferase (0.2 μM) is incubated with synthetic acceptor substrates (5 μM) and 100 μM UDP-glucose in a reaction buffer containing 20 mM HEPES, pH 7.5, 50 mM NaCl, 1 mM TCEP and 1 mM MgCl2. The reaction is incubated at 25° C. for 12 h. Each assay reaction was accompanied by control reaction (without enzyme). The reactions are quenched with 5% TFA to pH 2, desalted using ZipTip C18, and vacuum dried and analyzed using mass spectrometry.
Mass spectrometry has been used to detect glycosylation in product of glycosylation assay reactions using Matrix Assisted Laser Desorption Ionization Time of flight mass spectrometry (MALDI-TOF MS) and Liquid chromatography electrospray ionization mass spectrometry (LC/ESI-MS) techniques. MALDI-TOF MS has carried out at AB Sciex 5800 MALDI TOF/TOF and LC/ESI-MS has carried out at 6550 iFunnel QTOF LC/MS (Agilent Technologies) using Zorbax Eclipse plus C8 column (3.0×150 mm, 5μ) of Agilent technologies. For MALDI-TOF analysis and LC-ESI/MS analysis, vacuum dried samples are reconstituted in water and 0.1% formic acid respectively.
Various mutations are introduced in recombinant nucleotide dependent glycosyltransferase (GT-CTH) using side directed mutagenesis (Quick change lightning Mutagenesis kit, Agilent) using GTpET28a plasmid as template. The sequence of mutants is verified through DNA sequencing. The mutated recombinant plasmids are transformed into E. coli Lemo21(DE3) and E. coli BL21(DE3) cells for expression. The over expression, purification and functional analysis of mutants of recombinant nucleotide dependent glycosyltransferase proteins are performed using the above mentioned methods. The list of mutants of recombinant nucleotide dependent glycosyltransferase, created in accordance with present invention identifies D102, R136, W147, D152, A153, D154 residues critical for activity of recombinant nucleotide dependent glycosyltransferase (GT-CTH). Replacement of these residues to alanine results into abolishment of the glycosyltransferase activity.

Molecule	antimicrobial activity (presence and absence of zone of growth inhibition) [1]	In vitro glycosyltransferase activity status [2]
di-glucosylated product: Enterocin 96 peptide (SEQ ID NO: 4) carrying a glucose-glucose disaccharide glycan, made with the recombinant glycosyltransferase (MSKRDCNLMKACCAGQAVTYAIHSLLNRLGGDSSDPAGCNDIVRKYCK; cysteine pairing not given here; also: glucose-glucose disaccharide glycan, site not given here)	more antimicrobial activity than mono-glucosylated product	
B1		Active
B2		Inactive
B3		Active
B4		Inactive
B5		Inactive
B6		Active
B7		Active
B8		Inactive
B9		Active
B10		Inactive
B11		Inactive
B12		Inactive
B13		Inactive
B14		Active

Source: patent publication US11485991B2, “Multifunctional recombinant nucleotide dependent glycosyltransferase protein and its method of glycosylation thereof” (Council of Scientific & Industrial Research, priority 2016, dated 2022)
